In article PMC9063845:
One block for each substance: values may come before it.

Key:
Assay in all cases: SEC; preparative HiLoad 16/600 Superdex 200 pg (120 ml), 20 mM HEPES, 50 mM NaCl pH 7.5; elution at ~85 ml compared with protein standards (~60 kDa)
[1] = target: amilCP (Acropora millepora)
[2] = target: eforRed (Echinopora forsaliana)
[3] = target: gfasPurple (Galaxea fascicularis)
[4] = target: spisPink (Stylophora pistillata)

stoichiometry N [1]: 2
Substance: amilCP (natural protein)

stoichiometry N [2]: 2
Substance: eforRed (natural protein)

stoichiometry N [3]: 2
Substance: gfasPurple (natural protein)

stoichiometry N [4]: 2
Substance: spisPink (natural protein)
